Laboratory results reported in the supplement of paper PMC10724198.
± gives the standard deviation of the averaged measurements.

Test system: Saccharomyces cerevisiae
Assay: protein stability index of tFT-peptide fusion (C-terminal peptide) (PSI (0-1 scale)); higher = more stable (slower turnover)
Details: temperature: 30 C
Description: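 MPS profiling in S. cerevisiae of the yeast C-terminome library: the last 12 aa of each annotated ORF are fused to the C-terminus of a sfGFP-mCherry timer, after a GGGS linker. Cells are FACS-sorted into 8 mCherry/sfGFP bins and deep-sequenced. PSI runs from 0 (unstable) to 1 (stable); wild type and das1Δ backgrounds, two technical replicates each.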

[1] = genetic background: das1 deletion

GETSSSSAVAEV [AQY1 C-terminal 12 aa] was tested, and the protein stability index [1] was 0.6874 ± 0.0045 and the protein stability index (genetic background: wild type) was 0.659 ± 0.03.
GHNWLIFTRRRL [CBT1 C-terminal 12 aa] gave a protein stability index [1] of 0.718 ± 0.012 and a protein stability index (genetic background: wild type) of 0.707 ± 0.0083.
GIMVSPMKTNQR [SWI5 C-terminal 12 aa] was tested, and the protein stability index [1] was 0.708 ± 0.025 and the protein stability index (genetic background: wild type) was 0.6993 ± 0.0062.
Work on GIVNFWSLEKAA [CIA1 C-terminal 12 aa] yielded a protein stability index [1] of 0.716 ± 0.012 and a protein stability index (genetic background: wild type) of 0.633 ± 0.011.
Work on GIYSAVIDQTGF [RRP9 C-terminal 12 aa] yielded a protein stability index [1] of 0.705 ± 0.011 and a protein stability index (genetic background: wild type) of 0.6868 ± 0.003.
For GKFKSAVFEHAG [SRV2 C-terminal 12 aa], the protein stability index [1] was 0.703 ± 0.026 and the protein stability index (genetic background: wild type) was 0.71 ± 0.019.
Sequence GKKGQHVGCCVC [YFL066C C-terminal 12 aa] has a protein stability index [1] of 0.722 ± 0.0084 and a protein stability index (genetic background: wild type) of 0.691 ± 0.046.
“GKLLVPLVLYQI [YDR182W-A C-terminal 12 aa]” gave a protein stability index [1] of 0.673 ± 0.019 and a protein stability index (genetic background: wild type) of 0.535 ± 0.0071.
GKLPSSLLSYFV [ZUO1 C-terminal 12 aa] showed a protein stability index [1] of 0.7219 ± 0.0065 and a protein stability index (genetic background: wild type) of 0.673 ± 0.032.
In the case of GKRNYLLSVTFV [YCR006C C-terminal 12 aa], the protein stability index [1] is reported as 0.653 ± 0.012 and the protein stability index (genetic background: wild type) is reported as 0.6385 ± 0.0019.
GKWYCDDCKKKL [PHO23 C-terminal 12 aa] was tested, and the protein stability index [1] was 0.729 ± 0.026 and the protein stability index (genetic background: wild type) was 0.717 ± 0.048.
GLSIDTRSAYFV [YPL251W C-terminal 12 aa] was tested, and the protein stability index [1] was 0.725 ± 0.019 and the protein stability index (genetic background: wild type) was 0.68 ± 0.026.
With GLSPIRYFIPQH [YNL114C C-terminal 12 aa] the protein stability index [1] was 0.659 ± 0.017 and the protein stability index (genetic background: wild type) was 0.6812 ± 0.0052.
Sequence GNLRDTLIETYS [TIF6 C-terminal 12 aa] has a protein stability index [1] of 0.6559 ± 0.0033 and a protein stability index (genetic background: wild type) of 0.679 ± 0.0088.
GNNGNNNNTTNL [PET123 C-terminal 12 aa] gave a protein stability index [1] of 0.672 ± 0.008 and a protein stability index (genetic background: wild type) of 0.669 ± 0.0096.
Work on GNSVNPYNGRIN [SGF73 C-terminal 12 aa] yielded a protein stability index [1] of 0.718 ± 0.019 and a protein stability index (genetic background: wild type) of 0.735 ± 0.0081.
In the case of GNTENGTLKKKH [BSC5 C-terminal 12 aa], the protein stability index [1] is reported as 0.685 ± 0.0072 and the protein stability index (genetic background: wild type) is reported as 0.667 ± 0.037.
“GPCCMYIGCGCG [YBR056C-B C-terminal 12 aa]” was tested, and the protein stability index [1] was 0.6658 ± 0.0036 and the protein stability index (genetic background: wild type) was 0.686 ± 0.032.
For GPCVDALLSLSE [VPS9 C-terminal 12 aa], the protein stability index [1] was 0.74 ± 0.0083 and the protein stability index (genetic background: wild type) was 0.716 ± 0.048.
GPEKAAELAFLA [YML079W C-terminal 12 aa] gave a protein stability index [1] of 0.685 ± 0.024 and a protein stability index (genetic background: wild type) of 0.6497 ± 0.0026.
Sequence GQVIDPLKAPFK [UTP14 C-terminal 12 aa] has a protein stability index [1] of 0.6757 ± 0.0012 and a protein stability index (genetic background: wild type) of 0.691 ± 0.043.
GRPEQAPECKQS [NAP1 C-terminal 12 aa] showed a protein stability index [1] of 0.688 ± 0.0078 and a protein stability index (genetic background: wild type) of 0.648 ± 0.011.
GSEHSDPFSTFY [DBF20 C-terminal 12 aa] showed a protein stability index [1] of 0.748 ± 0.0093 and a protein stability index (genetic background: wild type) of 0.7245 ± 0.0011.
Work on GVAKSMGIKVVP [MRPL19 C-terminal 12 aa] yielded a protein stability index [1] of 0.652 ± 0.0064 and a protein stability index (genetic background: wild type) of 0.686 ± 0.044.
For GVALAGALAFLI [HOR7 C-terminal 12 aa], the protein stability index [1] was 0.68751 ± 0.00021 and the protein stability index (genetic background: wild type) was 0.66173 ± 0.00053.
GVEKYWGILSSD [SCW10 C-terminal 12 aa] gave a protein stability index [1] of 0.7123 ± 0.0033 and a protein stability index (genetic background: wild type) of 0.716 ± 0.028.
Sequence GYLIWSMGNRRR [YFL051C C-terminal 12 aa] has a protein stability index [1] of 0.731 ± 0.018 and a protein stability index (genetic background: wild type) of 0.71 ± 0.016.
With HAAEQILKHFAA [THI4 C-terminal 12 aa] the protein stability index [1] was 0.697 ± 0.013 and the protein stability index (genetic background: wild type) was 0.708 ± 0.015.
In the case of HATTVIDGKIKV [YHI9 C-terminal 12 aa], the protein stability index [1] is reported as 0.693 ± 0.0079 and the protein stability index (genetic background: wild type) is reported as 0.688 ± 0.039.
HDDKPWYKAMLE [GAL2 C-terminal 12 aa] was tested, and the protein stability index [1] was 0.7493 ± 0.0048 and the protein stability index (genetic background: wild type) was 0.733 ± 0.053.
HFANFKRTIEEK [AMD1 C-terminal 12 aa] gave a protein stability index [1] of 0.729 ± 0.049 and a protein stability index (genetic background: wild type) of 0.6925 ± 0.0065.
Sequence “HFCYIGRITTHT [YDL114W-A C-terminal 12 aa]” has a protein stability index [1] of 0.681 ± 0.017 and a protein stability index (genetic background: wild type) of 0.689 ± 0.018.
“HFLQKFFKLFDN [YMR052C-A C-terminal 12 aa]” gave a protein stability index [1] of 0.734 ± 0.0093 and a protein stability index (genetic background: wild type) of 0.687 ± 0.015.
HGGTISLCRFGG [SWT21 C-terminal 12 aa] gave a protein stability index [1] of 0.686 ± 0.023 and a protein stability index (genetic background: wild type) of 0.658 ± 0.015.
With HGNVFHIESICG [YLL047W C-terminal 12 aa] the protein stability index [1] was 0.655 ± 0.053 and the protein stability index (genetic background: wild type) was 0.737 ± 0.031.
HGRESANGISKQ [YLR374C C-terminal 12 aa] was tested, and the protein stability index [1] was 0.679 ± 0.015 and the protein stability index (genetic background: wild type) was 0.65531 ± 0.00026.
Sequence HGTAKALAAAKK [RPL29 C-terminal 12 aa] has a protein stability index [1] of 0.7098 ± 0.0054 and a protein stability index (genetic background: wild type) of 0.6697 ± 0.0058.
HIRKERTLYIYI [PIH1 C-terminal 12 aa] showed a protein stability index [1] of 0.60684 ± 0.00034 and a protein stability index (genetic background: wild type) of 0.351 ± 0.0044.
For HKKEVVSKGDDY [MAP2 C-terminal 12 aa], the protein stability index [1] was 0.6695 ± 0.0046 and the protein stability index (genetic background: wild type) was 0.653 ± 0.026.
Sequence HLGKFFVKQKIL [ERP1 C-terminal 12 aa] has a protein stability index [1] of 0.696 ± 0.042 and a protein stability index (genetic background: wild type) of 0.152 ± 0.0043.
HLSGSTIDTTVV [DSE1 C-terminal 12 aa] was tested, and the protein stability index [1] was 0.6624 ± 0.0029 and the protein stability index (genetic background: wild type) was 0.685 ± 0.012.
For HSDSADTHTHKH [MMT2 C-terminal 12 aa], the protein stability index [1] was 0.693 ± 0.025 and the protein stability index (genetic background: wild type) was 0.696 ± 0.029.
For HSITEGSYIYIK [YOR062C C-terminal 12 aa], the protein stability index [1] was 0.687 ± 0.062 and the protein stability index (genetic background: wild type) was 0.676 ± 0.05.
For “HSVWSQSTINND [YML034C-A C-terminal 12 aa]”, the protein stability index [1] was 0.725 ± 0.015 and the protein stability index (genetic background: wild type) was 0.702 ± 0.066.
HVCVDVDVIVST [TRM12 C-terminal 12 aa] showed a protein stability index [1] of 0.6505 ± 0.0056 and a protein stability index (genetic background: wild type) of 0.6574 ± 0.001.
HVKDHQPGKPFI [YDR433W C-terminal 12 aa] gave a protein stability index [1] of 0.689 ± 0.023 and a protein stability index (genetic background: wild type) of 0.708 ± 0.063.
“HYPSSDIRGDIL [YOR161C-C C-terminal 12 aa]” showed a protein stability index [1] of 0.6911 ± 0.0014 and a protein stability index (genetic background: wild type) of 0.69973 ± 0.00023.
Work on IAFPQRKYAIKA [RPL35A C-terminal 12 aa] yielded a protein stability index [1] of 0.299 ± 0.024 and a protein stability index (genetic background: wild type) of 0.33 ± 0.01.
With IASQNSLGWNEV [MSB2 C-terminal 12 aa] the protein stability index [1] was 0.69667 ± 0.00047 and the protein stability index (genetic background: wild type) was 0.693 ± 0.024.
ICYTFKHLVSHK [FRT2 C-terminal 12 aa] showed a protein stability index [1] of 0.691 ± 0.016 and a protein stability index (genetic background: wild type) of 0.6574 ± 0.0033.
For IDEMYRGGISMN [AIM32 C-terminal 12 aa], the protein stability index [1] was 0.693 ± 0.013 and the protein stability index (genetic background: wild type) was 0.69 ± 0.024.
IEAPQFYRYWSA [SWI3 C-terminal 12 aa] was tested, and the protein stability index [1] was 0.724 ± 0.033 and the protein stability index (genetic background: wild type) was 0.706 ± 0.011.
Work on IEEMLEIISGYA [RPC17 C-terminal 12 aa] yielded a protein stability index [1] of 0.5664 ± 0.0013 and a protein stability index (genetic background: wild type) of 0.584 ± 0.008.
For IEERLVAIAEQD [SCL1 C-terminal 12 aa], the protein stability index [1] was 0.7091 ± 0.0065 and the protein stability index (genetic background: wild type) was 0.7 ± 0.017.
IELIQNMNKESF [YOR131C C-terminal 12 aa] showed a protein stability index [1] of 0.696 ± 0.03 and a protein stability index (genetic background: wild type) of 0.692 ± 0.015.
Sequence IEQYLQTYGASA [URA5 C-terminal 12 aa] has a protein stability index [1] of 0.708 ± 0.011 and a protein stability index (genetic background: wild type) of 0.695 ± 0.014.
IEVGADSYAEEF [TUB3 C-terminal 12 aa] showed a protein stability index [1] of 0.689 ± 0.018 and a protein stability index (genetic background: wild type) of 0.671 ± 0.014.
With IEVGNGASVLIQ [TRS65 C-terminal 12 aa] the protein stability index [1] was 0.692 ± 0.01 and the protein stability index (genetic background: wild type) was 0.691 ± 0.023.
With IFQEAIDKTVEI [YML082W C-terminal 12 aa] the protein stability index [1] was 0.708 ± 0.0011 and the protein stability index (genetic background: wild type) was 0.706 ± 0.029.
With IGAPASGLRIRV [COP1 C-terminal 12 aa] the protein stability index [1] was 0.693 ± 0.0074 and the protein stability index (genetic background: wild type) was 0.69199 ± 5.7e-06.
IGGLKREAEASA [GDH2 C-terminal 12 aa] showed a protein stability index [1] of 0.695 ± 0.041 and a protein stability index (genetic background: wild type) of 0.719 ± 0.0075.
